# Data reported in US20240209065A1 (SINGLOMICS BEIJING DANXU BIOPHARMACEUTICALS, published 2024).
# How the values were obtained:
# [1] = target: S protein of authentic SARS-CoV-2 G614 virus (SARS-CoV-2, UniProt P0DTC2 14-1273); test: cell-based or functional assay
# [2] = target: S protein of authentic SARS-CoV-2 G614 virus (SARS-CoV-2, UniProt P0DTC2 14-1273); test: cell-based or functional assay; remark: listed apart in the source
Binder,"IC50, microneutralization assay with authentic virus [1] [pM]","IC50, microneutralization assay with authentic virus [2] [pM]"
DXP-604 dimeric IgA1 (antibody) heavy: not shown light: DIQLTQSPSFLSASVGDRVTITCRASQGISSDLAWYQQKPGKAPNLLIYAASTLQSGVPSRFSGSGSGTEFTLTISSLQPEDFATYYCQQLNSDLYTFGQGTKLEIKRTVAAPSVFIFPPSDEQLKSGTASVVCLLNNFYPREAKVQWKVDNALQSGNSQESVTEQDSKDSTYSLSSTLTLSKADYEKHKVYACEVTHQGLSSPVTKSFNRGEC not shown,110,–
DXP-604 secretory IgA1 (antibody) heavy: not shown light: DIQLTQSPSFLSASVGDRVTITCRASQGISSDLAWYQQKPGKAPNLLIYAASTLQSGVPSRFSGSGSGTEFTLTISSLQPEDFATYYCQQLNSDLYTFGQGTKLEIKRTVAAPSVFIFPPSDEQLKSGTASVVCLLNNFYPREAKVQWKVDNALQSGNSQESVTEQDSKDSTYSLSSTLTLSKADYEKHKVYACEVTHQGLSSPVTKSFNRGEC chain 1: not shown chain 2: not shown,40,–
"XG014 IgG (antibody, V domains shown) VH: EVQLVQSGAEVKKPGESLKISCKGSGYSFSNYWIGWVRHMPGKGLEWMGIIYPGDSDTRYSPSFQGQVTISVDTSISTAYLQWSSLKASDTAMYYCTRHQYGYNYGYFYYYIDVWGKGTTVTVSS VL: QSVLTQPPSVSAAPGQKVTISCSGSSSNIGNNPVSWYRQVPGTAPKLLIYDNNKRPSGIPDRFSGSKSGASATLGITGLQTGDEADYYCGTWHTSLSSGVFGGGTKLTVL",–,240
